Changes are numbered by the printed parent chain.
B1: UPFR6mGAmUS (dsDNA)
DNA 1: CCTTGGTTTAAGTGGCGGTTTAAAAGCGCGGGAATTACAG
DNA 2: CTGTAATTCCCGCGCTTTTAAACCGCCACTTAAACCAAGG
B2: UPFR6mUP (dsDNA)
DNA 1: CCTTCTTTTAAGTTTCAACGGAAAAGCGCGGGAATTACAG
DNA 2: CTGTAATTCCCGCGCTTTTCCGTTGAAACTTAAAAGAAGG
B3: UPFR6 (dsDNA)
DNA 1: CCTTGGTTTCCGTGGCAACGGAAAAGCGCGGGAATTACAG
DNA 2: CTGTAATTCCCGCGCTTTTCCGTTGCCACGGAAACCAAGG
B4: UPFR6mUS (dsDNA)
DNA 1: B1 DNA 1 with A10C, A11C
DNA 2: B1 DNA 2 with T30G, T31G
B5: UPFR6mGA (dsDNA)
DNA 1: B3 DNA 1 with C10A, C11A
DNA 2: B3 DNA 2 with G30T, G31T
B6: UP (dsDNA)
DNA 1: CCTTGGTTTCCGTGGCAACGGAACCTT
DNA 2: AAGGTTCCGTTGCCACGGAAACCAAGG

target: GABP alpha (MBP fusion from pMAL-C2);GABP beta (MBP fusion from pMAL-C2) (Homo sapiens;Homo sapiens, UniProt Q06546;Q06547 1-454;1-395, |); assay: EMSA; Bandshift conditions as in ref [16], not given; 6% nondenaturing acrylamide gel; recombinant proteins eluted in 25 mM HEPES pH 7.6, 0.1 mM EDTA, 40 mM KCl, 10%; details: protein: recombinant;recombinant; tags: MBP N-terminal (pMAL-C2 vector);MBP N-terminal (pMAL-C2 vector); copies: 1;1; label: 32P
Sequence (Q06546 whole entry, chain 1 of 2, the tested form may be a part): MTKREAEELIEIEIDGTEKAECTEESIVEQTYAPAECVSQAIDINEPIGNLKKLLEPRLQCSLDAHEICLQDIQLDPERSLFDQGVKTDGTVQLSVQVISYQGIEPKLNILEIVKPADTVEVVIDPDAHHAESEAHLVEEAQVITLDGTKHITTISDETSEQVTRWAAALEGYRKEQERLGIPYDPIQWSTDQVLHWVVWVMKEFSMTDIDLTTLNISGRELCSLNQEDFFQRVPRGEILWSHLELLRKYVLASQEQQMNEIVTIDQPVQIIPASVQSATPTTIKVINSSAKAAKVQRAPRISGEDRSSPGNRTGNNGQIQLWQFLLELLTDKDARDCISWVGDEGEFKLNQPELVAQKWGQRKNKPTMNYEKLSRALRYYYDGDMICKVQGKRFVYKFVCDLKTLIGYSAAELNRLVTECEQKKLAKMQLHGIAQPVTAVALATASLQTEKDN
Sequence (Q06547 whole entry, chain 2 of 2, the tested form may be a part): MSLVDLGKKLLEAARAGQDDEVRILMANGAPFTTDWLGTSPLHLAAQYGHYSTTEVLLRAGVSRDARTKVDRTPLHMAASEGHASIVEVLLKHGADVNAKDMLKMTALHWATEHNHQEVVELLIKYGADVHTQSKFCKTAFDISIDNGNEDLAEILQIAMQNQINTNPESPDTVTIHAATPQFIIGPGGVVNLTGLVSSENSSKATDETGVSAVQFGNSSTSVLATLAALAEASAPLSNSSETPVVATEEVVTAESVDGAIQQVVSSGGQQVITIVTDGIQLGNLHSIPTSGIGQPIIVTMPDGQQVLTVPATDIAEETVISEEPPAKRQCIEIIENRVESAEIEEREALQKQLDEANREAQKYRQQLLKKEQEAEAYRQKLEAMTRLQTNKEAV

Q: Does B1 bind?
A: no binding

Q: Does B2 bind?
A: no binding

Q: Does B3 bind?
A: binds

Q: Does B4 bind?
A: binds

Q: Does B5 bind?
A: no binding

Q: Does B6 bind?
A: binds

Reference: PMC2206725, “Characterization of a negative transcriptional element in the BRCA1 promoter”
